We go through three substances from patent publication US20150064134A1.

What all share (experiment): cell-based or functional assay
Test [1] has as its target SAPK2b(h) (human) (UniProt Q15759).
Test [2] concerns the target T1, IRAK4(h) (human) (UniProt Q9NWZ3).
T1 sequence (looked up): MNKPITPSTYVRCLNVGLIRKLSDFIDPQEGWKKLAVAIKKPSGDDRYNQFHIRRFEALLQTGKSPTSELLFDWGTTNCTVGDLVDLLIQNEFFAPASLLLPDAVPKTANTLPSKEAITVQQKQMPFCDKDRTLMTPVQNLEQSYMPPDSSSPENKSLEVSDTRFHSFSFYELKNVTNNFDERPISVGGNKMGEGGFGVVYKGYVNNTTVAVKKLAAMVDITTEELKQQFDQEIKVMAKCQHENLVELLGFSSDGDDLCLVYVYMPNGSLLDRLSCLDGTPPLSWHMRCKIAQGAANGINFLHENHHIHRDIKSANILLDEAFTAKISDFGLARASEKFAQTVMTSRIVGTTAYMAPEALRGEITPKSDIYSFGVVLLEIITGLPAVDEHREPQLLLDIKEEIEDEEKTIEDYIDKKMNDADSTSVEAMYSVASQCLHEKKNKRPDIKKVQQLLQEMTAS

In test [3] the target is CSK(h) (human) (UniProt P41240).
The target in test [4] is EphA4(h) (human) (UniProt P54764).
For test [5], the target named is MLK1(h) (human) (UniProt P80192).
The target in test [6] is T2, Flt3(h) (human) (UniProt P36888).
T2 sequence (looked up): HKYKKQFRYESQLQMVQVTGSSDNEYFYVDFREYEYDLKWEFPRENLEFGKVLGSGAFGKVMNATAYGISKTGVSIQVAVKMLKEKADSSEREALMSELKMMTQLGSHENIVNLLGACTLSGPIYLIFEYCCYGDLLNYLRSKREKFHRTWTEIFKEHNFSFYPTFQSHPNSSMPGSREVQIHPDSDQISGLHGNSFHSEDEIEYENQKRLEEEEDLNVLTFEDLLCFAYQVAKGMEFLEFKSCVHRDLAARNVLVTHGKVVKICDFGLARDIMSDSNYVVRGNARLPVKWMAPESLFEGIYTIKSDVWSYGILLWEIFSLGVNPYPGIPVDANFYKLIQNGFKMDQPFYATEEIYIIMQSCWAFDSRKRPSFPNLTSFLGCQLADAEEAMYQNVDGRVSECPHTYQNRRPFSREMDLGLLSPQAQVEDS

Test [7] has as its target T3, GCK(h) (human) (UniProt Q12851).
T3 sequence (looked up): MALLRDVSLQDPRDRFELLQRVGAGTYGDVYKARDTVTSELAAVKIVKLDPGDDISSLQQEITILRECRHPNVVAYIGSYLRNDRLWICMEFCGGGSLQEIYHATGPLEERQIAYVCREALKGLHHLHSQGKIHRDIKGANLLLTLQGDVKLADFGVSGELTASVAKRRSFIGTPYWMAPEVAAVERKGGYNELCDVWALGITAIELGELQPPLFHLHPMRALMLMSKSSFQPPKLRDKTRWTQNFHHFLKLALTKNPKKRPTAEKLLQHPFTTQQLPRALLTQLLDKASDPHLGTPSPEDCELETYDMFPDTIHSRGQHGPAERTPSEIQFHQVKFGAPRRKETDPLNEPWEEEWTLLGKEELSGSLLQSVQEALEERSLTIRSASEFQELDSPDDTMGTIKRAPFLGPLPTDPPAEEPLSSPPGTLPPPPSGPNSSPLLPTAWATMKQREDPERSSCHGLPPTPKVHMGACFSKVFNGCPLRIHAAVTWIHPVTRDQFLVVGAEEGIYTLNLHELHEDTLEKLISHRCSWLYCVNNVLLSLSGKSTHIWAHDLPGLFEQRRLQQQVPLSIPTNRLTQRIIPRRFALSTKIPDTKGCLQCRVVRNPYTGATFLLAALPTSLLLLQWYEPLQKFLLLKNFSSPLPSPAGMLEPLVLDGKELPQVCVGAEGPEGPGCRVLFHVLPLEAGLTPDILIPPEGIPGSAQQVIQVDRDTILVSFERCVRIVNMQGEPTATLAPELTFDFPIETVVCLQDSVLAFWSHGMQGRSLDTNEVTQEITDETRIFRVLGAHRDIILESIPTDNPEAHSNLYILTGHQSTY

Test [8] concerns the target CaMKI(h) (human) (UniProt Q14012).
The target in test [9] is PDGFRα(h) (human) (UniProt P16234).
Test [10] addresses T4, ALK4(h) (human) (UniProt P36896).
T4 sequence (looked up): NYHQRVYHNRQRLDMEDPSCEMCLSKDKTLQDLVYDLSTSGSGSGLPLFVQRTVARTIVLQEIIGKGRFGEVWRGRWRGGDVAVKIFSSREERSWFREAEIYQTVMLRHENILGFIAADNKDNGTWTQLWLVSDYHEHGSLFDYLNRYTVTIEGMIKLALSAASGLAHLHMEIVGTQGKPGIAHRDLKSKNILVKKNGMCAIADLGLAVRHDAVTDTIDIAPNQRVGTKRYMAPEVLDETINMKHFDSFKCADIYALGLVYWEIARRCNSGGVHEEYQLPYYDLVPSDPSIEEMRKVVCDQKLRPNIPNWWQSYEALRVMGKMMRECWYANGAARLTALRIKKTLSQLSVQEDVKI

The target of test [11] is cKit(D816H)(h) (human) (UniProt P10721).
Test [12] addresses mTOR(h) (human) (UniProt P42345).
In test [13] the target is PTK5(h) (human) (UniProt P42685).
The target in test [14] is HIPK1(h) (human) (UniProt Q86Z02).
Test [15] has as its target CHK2(I157T)(h) (human) (UniProt O96017).
For test [16], the target named is JNK3(h) (human) (UniProt P53779).
Test [17] addresses CDK5/p25(h) (human) (UniProt Q00535).
The target in test [18] is Lyn(h) (human) (UniProt P07948).
Test [19] concerns the target CaMKIIγ(h) (human) (UniProt Q13555).
Test [20] addresses Fes(h) (human) (UniProt P07332).
For test [21], the target named is Abl(h) (human) (UniProt P00519).
Sequence of Abl(h) (human) (P00519 27-1130 limits assumed): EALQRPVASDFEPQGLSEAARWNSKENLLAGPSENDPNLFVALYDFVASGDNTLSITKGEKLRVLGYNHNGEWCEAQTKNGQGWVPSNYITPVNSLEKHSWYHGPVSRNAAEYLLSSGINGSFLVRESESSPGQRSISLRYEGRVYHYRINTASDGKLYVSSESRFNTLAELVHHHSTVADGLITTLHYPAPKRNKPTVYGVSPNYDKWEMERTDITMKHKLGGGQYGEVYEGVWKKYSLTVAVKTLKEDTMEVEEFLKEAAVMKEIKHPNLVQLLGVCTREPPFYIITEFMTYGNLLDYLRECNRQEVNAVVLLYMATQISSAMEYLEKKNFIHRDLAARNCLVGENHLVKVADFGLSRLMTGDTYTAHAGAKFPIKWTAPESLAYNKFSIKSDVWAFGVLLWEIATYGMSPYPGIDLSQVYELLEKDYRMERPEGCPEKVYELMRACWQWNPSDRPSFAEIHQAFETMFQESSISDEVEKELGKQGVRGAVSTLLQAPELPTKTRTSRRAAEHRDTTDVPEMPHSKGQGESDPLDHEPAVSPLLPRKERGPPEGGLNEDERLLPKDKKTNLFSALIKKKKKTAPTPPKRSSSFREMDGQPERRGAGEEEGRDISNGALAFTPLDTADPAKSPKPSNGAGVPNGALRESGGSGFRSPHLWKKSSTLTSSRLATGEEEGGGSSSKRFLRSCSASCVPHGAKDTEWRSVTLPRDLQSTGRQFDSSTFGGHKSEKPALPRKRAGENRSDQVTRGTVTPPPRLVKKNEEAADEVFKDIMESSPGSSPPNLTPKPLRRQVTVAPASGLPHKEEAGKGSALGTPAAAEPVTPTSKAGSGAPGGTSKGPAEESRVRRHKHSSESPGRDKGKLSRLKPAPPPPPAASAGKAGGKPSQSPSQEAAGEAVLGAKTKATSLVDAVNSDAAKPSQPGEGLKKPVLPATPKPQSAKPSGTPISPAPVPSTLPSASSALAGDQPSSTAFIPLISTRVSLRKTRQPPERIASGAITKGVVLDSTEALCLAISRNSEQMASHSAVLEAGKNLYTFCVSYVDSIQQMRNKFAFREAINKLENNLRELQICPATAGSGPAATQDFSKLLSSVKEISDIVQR

Sequence of mTOR(h) (human) (P42345 1362-2549 limits assumed): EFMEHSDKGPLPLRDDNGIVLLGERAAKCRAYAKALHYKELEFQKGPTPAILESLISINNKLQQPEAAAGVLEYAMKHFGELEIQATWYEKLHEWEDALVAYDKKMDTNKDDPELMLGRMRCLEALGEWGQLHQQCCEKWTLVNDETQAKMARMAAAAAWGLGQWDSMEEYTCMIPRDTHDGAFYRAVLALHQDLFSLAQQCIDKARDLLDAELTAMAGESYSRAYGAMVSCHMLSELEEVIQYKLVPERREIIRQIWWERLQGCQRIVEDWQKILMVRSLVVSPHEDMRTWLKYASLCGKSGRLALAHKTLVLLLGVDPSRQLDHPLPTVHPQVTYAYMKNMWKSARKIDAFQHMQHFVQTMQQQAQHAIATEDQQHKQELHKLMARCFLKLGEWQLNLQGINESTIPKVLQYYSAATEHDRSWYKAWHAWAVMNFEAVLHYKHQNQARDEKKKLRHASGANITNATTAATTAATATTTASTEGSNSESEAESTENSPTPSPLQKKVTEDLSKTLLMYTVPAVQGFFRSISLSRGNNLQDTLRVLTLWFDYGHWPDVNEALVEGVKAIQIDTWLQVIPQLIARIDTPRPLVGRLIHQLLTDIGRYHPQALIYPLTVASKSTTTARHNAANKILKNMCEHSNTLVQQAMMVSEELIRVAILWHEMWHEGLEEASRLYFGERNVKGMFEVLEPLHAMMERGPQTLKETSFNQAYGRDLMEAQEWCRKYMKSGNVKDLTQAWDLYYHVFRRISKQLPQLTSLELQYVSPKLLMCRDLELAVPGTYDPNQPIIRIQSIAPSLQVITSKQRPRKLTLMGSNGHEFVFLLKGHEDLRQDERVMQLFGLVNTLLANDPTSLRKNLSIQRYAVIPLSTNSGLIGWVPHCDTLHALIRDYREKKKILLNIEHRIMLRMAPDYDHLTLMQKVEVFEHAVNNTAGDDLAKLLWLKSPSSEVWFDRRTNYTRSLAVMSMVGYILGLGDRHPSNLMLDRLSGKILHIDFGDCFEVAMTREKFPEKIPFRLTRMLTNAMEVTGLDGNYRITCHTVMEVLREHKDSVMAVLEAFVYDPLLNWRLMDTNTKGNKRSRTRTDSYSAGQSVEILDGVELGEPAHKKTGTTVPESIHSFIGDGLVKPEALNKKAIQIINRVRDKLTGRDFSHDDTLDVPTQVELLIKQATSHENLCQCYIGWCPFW
Sequence of cKit(D816H)(h) (human) (P10721 544-976 D816H): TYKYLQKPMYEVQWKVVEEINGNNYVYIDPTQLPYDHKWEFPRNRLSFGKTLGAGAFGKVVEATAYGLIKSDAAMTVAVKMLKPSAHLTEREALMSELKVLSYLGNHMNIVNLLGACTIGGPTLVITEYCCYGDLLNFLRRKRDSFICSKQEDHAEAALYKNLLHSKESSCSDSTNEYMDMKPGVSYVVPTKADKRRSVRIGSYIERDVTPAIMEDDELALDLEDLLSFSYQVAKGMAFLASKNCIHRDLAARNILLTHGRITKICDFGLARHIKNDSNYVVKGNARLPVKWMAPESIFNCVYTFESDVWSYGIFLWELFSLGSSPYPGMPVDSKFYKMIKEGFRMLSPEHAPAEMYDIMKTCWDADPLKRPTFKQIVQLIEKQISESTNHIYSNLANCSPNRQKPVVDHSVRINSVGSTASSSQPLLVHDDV
Sequence of SAPK2b(h) (human) (Q15759 whole entry): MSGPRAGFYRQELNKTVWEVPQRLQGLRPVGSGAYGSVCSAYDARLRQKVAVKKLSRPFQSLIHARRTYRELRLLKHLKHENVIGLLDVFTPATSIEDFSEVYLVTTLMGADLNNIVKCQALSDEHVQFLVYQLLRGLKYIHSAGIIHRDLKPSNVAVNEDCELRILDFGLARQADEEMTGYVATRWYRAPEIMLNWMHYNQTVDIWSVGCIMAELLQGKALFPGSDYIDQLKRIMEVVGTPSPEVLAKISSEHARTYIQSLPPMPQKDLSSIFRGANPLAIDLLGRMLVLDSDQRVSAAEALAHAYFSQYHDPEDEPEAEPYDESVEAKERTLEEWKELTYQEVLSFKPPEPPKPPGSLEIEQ
Sequence of CaMKIIγ(h) (human) (Q13555 whole entry): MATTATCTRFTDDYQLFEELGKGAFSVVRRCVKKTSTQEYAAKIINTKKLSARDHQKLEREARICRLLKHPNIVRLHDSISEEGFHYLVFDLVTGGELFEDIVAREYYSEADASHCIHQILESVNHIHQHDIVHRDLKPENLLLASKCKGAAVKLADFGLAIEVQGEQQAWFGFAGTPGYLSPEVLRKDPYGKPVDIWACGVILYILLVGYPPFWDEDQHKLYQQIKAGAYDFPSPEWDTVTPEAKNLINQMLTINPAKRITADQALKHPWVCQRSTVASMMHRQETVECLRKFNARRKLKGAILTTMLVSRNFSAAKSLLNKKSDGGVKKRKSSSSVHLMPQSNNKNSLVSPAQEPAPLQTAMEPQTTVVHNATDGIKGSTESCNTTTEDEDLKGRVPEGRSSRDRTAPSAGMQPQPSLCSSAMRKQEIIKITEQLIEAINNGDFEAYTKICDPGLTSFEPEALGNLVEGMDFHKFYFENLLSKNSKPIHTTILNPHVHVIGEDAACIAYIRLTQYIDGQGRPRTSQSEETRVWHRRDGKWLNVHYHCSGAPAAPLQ
Sequence of PTK5(h) (human) (P42685 whole entry): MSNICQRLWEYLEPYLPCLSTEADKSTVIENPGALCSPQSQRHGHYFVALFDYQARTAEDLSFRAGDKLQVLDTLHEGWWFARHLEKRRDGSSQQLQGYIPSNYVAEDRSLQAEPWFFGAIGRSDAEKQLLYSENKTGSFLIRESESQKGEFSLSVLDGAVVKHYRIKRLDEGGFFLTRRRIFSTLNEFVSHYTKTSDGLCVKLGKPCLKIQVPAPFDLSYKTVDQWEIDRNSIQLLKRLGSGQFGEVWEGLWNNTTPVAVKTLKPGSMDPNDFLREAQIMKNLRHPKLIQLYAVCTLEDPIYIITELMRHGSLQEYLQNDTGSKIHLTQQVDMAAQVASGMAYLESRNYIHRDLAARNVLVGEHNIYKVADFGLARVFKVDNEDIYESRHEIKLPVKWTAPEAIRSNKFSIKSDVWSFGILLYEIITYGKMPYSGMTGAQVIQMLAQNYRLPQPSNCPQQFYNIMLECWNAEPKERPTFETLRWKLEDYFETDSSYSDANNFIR
Sequence of EphA4(h) (human) (P54764 570-986 limits assumed): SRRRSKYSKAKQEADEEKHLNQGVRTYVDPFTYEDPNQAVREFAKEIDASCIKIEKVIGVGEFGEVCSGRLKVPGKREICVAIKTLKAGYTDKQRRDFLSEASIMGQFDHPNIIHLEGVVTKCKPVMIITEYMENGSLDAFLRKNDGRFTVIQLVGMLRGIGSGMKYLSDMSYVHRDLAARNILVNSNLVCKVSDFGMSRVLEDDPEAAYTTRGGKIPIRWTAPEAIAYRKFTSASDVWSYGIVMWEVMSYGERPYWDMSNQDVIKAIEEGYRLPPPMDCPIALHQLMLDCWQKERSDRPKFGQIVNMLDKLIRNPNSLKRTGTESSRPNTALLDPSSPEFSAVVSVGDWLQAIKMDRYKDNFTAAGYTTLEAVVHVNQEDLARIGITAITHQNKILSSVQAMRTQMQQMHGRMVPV

In the case of MMI-0500 (peptide), the % activity at 100 µM in test [1] was 42%; in test [2] it was 3%; in test [3] it was 2%; in test [4] it was 48%; in [5] it was 43%; in test [6], 17%. Also, the % activity at 100 µM in test [7] is 30%; in [8], -1%; in test [9], 40%; in test [10], 81%; in test [11], 194%; in test [12] it was 135%. For the same substance, the % activity at 100 µM in test [13] is 96%; in test [14], 47%; in test [15] it was 3%; in test [16], 171%; in test [17], 66%; in [18], 31%. Besides, the results for the % activity at 100 µM in test [19], in test [20] and in [21] were 3%, 23% and 16%, respectively.

For MMI-0300 (peptide), the % activity at 100 µM in [1] is 81%; in [2], 59%; in [3], 49%; in test [4], 88%; in test [5], 40%; in test [6], 84%. Moreover, the % activity at 100 µM was 70% in test [7]; 1% in test [8]; 65% in test [9]; 140% in test [10]; 126% in test [11]; 91% in test [12]. For the same substance, the % activity at 100 µM in [13] was 132%; in test [14] it was 74%; in [15] it was 43%; in [16], 89%; in test [17], 89%; in [18], 69%. Also, the % activity at 100 µM in [19] was determined as 5%; in test [20], 20%; in test [21], 69%.

Regarding MMI-0400 (peptide), the % activity at 100 µM in [1] amounted to 82%; in test [2] it was 59%; in test [3], 16%; in test [4] it was 65%; in test [5], 33%; in [6], 18%. Moreover, the % activity at 100 µM in [7] amounted to 66%; in test [8] it was 0%; in test [9], 40%; in [10] it was 130%; in [11], 143%; in [12], 93%. For the same substance, the % activity at 100 µM came to 129% in test [13]; 91% in [14]; 41% in test [15]; 70% in [16]; 92% in test [17]; 3% in [18]. Besides, the % activity at 100 µM in [19] turned out to be 3%; in test [20], 16%; in test [21], 84%.
